For assay [1], the target named is second voltage-sensing domain (VSD-II) of the human NaV1.4 channel, residues 554-696, with C660S, C661S and C687S (human) (UniProt P35499). Briefly: NMR titration; 15N-labeled VSD-II titrated with unlabeled Hm-3 in buffer B with DPC/LDAO micelles (11/11 mM), pH 5.5, 45°C, 800 MHz; chemical shifts fitted with two sites on VSD-II and Hm-3 partitioning to micelles (K M = 90 μM).

Assay [2] deals with single A140C mutant of the VSD of KVAP channel. Description: SEC; Superdex 200 in 20-mM Tris-HCl, 150-mM NaCl, pH 5.5, 0.3% DPC, calibrated by Stokes radii; with SDS-PAGE; VSD-KVAP A140C also after 1.5-mM DTT.

One may read the stoichiometry N as a count of units in the complex or per binding partner.

Consider “gating modifier toxin Hm-3 from the crab spider Heriaeus melloteei (peptide)”, for which, in assay [1], the KD (K V), cytoplasmic binding site stood at 7 µM and the KD (K V), extracellular binding site came out at 11 µM.

In turn, “single A140C mutant of the VSD of KVAP channel (domain or fragment)” gave a stoichiometry N in assay [2] of 2.

These data come from publication PMC6737007.
